Reference: article PMC7056315 (Science Advances, 2020)

What was measured:
[1] = biological target: KcsA-Shaker channel (KcsA pore carried in the Shaker channel) (Drosophila | not stated); assay: […]
[2] = biological target: human Kv1.3 channel (human) (UniProt P22001); assay: two-electrode voltage clamp
[3] = biological target: KcsA-Shaker channel (KcsA pore carried in the Shaker channel) (Drosophila | not stated); assay: two-electrode voltage clamp
[4] = biological target: KcsA-Shaker channel (KcsA pore carried in the Shaker channel) (Drosophila | not stated); assay: two-electrode voltage clamp; remark: listed apart in the source
[5] = test system: KcsA-Shaker–Y82V; assay: TEVC equilibrium inhibition of pore mutant KcsA-Shaker-Y82V in oocytes; format: cell-based; settings: KcsA-Shaker–Y82V vs KcsA-Shaker, 0 mV
[6] = test system: KcsA-Shaker channels; assay: TEVC block of KcsA-Shaker channels expressed in Xenopus oocytes; format: cell-based
[7] = biological target: KcsA-Shaker channels; settings: TEA block of KcsA-Shaker; cited from earlier work
[8] = biological target: human Kv1.3 channel (human) (UniProt P22001); assay: […]
[9] = biological target: KcsA-Shaker–Y82V (Drosophila | not stated); assay: […]

Sequence of human Kv1.3 channel (human) (P22001 whole entry): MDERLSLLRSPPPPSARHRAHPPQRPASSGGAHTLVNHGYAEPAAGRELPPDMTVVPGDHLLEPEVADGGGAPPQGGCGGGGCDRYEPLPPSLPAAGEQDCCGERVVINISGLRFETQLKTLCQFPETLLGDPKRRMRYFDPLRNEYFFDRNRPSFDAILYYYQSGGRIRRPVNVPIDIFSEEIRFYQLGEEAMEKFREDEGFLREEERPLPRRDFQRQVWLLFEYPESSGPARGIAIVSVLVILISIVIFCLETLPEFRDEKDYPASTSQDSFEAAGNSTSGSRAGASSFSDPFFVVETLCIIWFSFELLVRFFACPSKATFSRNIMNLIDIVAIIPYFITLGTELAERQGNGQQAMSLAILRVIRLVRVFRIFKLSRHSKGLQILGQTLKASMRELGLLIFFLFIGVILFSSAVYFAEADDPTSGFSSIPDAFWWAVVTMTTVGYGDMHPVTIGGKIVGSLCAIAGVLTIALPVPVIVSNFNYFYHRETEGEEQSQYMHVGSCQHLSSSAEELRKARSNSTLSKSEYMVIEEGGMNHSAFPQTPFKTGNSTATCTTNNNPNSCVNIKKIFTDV

Peptide HmK-Lys^22Asn
Ki [1]: 225 nM | koff [1]: 0.1 s⁻¹ | kon [1]: 380000 M⁻¹ s⁻¹

ShK-Lys22Asn peptide
Ki [2]: 1.2 nM

T-HmK variant Pro^8 to alanine (peptide)
fold decrease of affinity against T-HmK [3]: 10 fold

T-HmK–Tyr^23Ala (peptide)
Ki [3]: 28 nM | koff [3]: 0.17 s⁻¹ | kon [3]: 6.1e+06 M⁻¹ s⁻¹ | percent of current blocked (0.5 ng of cRNA) [3]: < 38%

T-HmK (membrane-tethered HmK, 46-residue linker) (peptide)
Ki [2]: 3 nM | Ki [3]: 1.09 nM | apparent first-order on rate (effective T-HmK 1 nM) [3]: 0.014 s⁻¹ | apparent first-order on rate (effective T-HmK 17 nM) [3]: 0.119 s⁻¹ | koff [3]: 0.0073 s⁻¹ | kon [3]: 6.6e+06 M⁻¹ s⁻¹ | percent of current inhibited (0.01 ng of T-HmK cRNA) [3]: 2% | percent of current inhibited (0.25 ng of T-HmK cRNA) [3]: 76% | percent of current inhibited (0.35 ng of T-HmK cRNA) [3]: 87% | percent of current inhibited (0.5 ng of T-HmK cRNA) [3]: > 94% | percent of current inhibited (1 ng of T-HmK cRNA) [3]: 98% | τon (0.25 ng of T-HmK cRNA) [3]: 33 s | Ki [4]: 1.1 nM

Peptide HmK-Tyr^23Ala
Ki [1]: 162 nM | koff [1]: 0.15 s⁻¹ | kon [1]: 930000 M⁻¹ s⁻¹

CC[N+](CC)(CC)CC [TEA, tetraethylammonium]
decrease in equilibrium affinity by mutation of pore residue Tyr^82 to Val [5]: ~ 200 fold | block of KcsA-Shaker ([6]; 100 mM TEA): complete | τoff (dissociation / unblock) ([6]; washout of 100 mM TEA): ~ 1.3 s | Ki [7]: ~800 µM

T-ShK–Lys^22Asn (peptide)
Ki [2]: 0.42 nM | percent of current blocked (0.1 ng of cRNA) [2]: 70%

T-HmK variant Asn^26 to alanine (peptide)
fold decrease of affinity against T-HmK [3]: 10 fold

ShK-K22N peptide
fold decrease of inhibition against ShK peptide [8]: 24 fold

T-HmK–Lys^22Asn (peptide)
fold change of apparent Ki against T-HmK [2]: 230 fold | percent of current blocked (0.5 ng of cRNA) [2]: 2% | Ki [3]: 35 nM | koff [3]: 0.11 s⁻¹ | kon [3]: 3.1e+06 M⁻¹ s⁻¹ | percent of current blocked (0.5 ng of cRNA) [3]: < 38%

HmK peptide
kon [3]: 1.2e+06 M⁻¹ s⁻¹ | τon (30 nM HmK, after TEA wash off) [3]: 27 s | Ki [8]: 3.1 nM | fold decrease of equilibrium affinity against KcsA-Shaker [9]: 550 fold | Ki [1]: 0.94 nM | kon [1]: 1.3e+06 M⁻¹ s⁻¹ | τoff [1]: 714 s | τon (5 nM HmK) [1]: 126 s

T-HmK-Lys22Asn
koff [8]: 0.93 s⁻¹

T-ShK (membrane-tethered ShK) (peptide)
Ki [2]: 0.098 nM

T-HmK–Arg^24Gln (peptide)
fold change of apparent Ki against T-HmK [2]: 3 fold | percent of current blocked (0.5 ng of cRNA) [2]: 68% | Ki [3]: 0.91 nM | koff [3]: 0.0063 s⁻¹ | kon [3]: 6.9e+06 M⁻¹ s⁻¹

T-ShK–Arg^24Gln (peptide)
Ki [2]: 0.075 nM | percent of current blocked (0.1 ng of cRNA) [2]: 93%
